# Literature values as cited in patent publication US20170240926A1, “METHODS FOR PRENYLATION OF PEPTIDES AND THEIR USE IN OVER-PRODUCTION OF FARNESENE AND GERANYLGERANYL TERPENES” (University of North Texas, priority 2016, published 2017).
# Biological target: FTase (Rattus norvegicus, UniProt Q02293+Q04631)
# Details: 10 μM FPP, 0.4-10 μM dansylated peptide, 25-300 nM FTase, 50 mM HEPPSO pH 7.8, 25° C.
substance,measurement,value
CFLS: peptide of the form dansyl-TKCxxx with C-terminal CFLS; SCAMPER,kfarn,0.46 ± 0.05 s⁻¹
